# From paper PMC11109483
# Target: biotinylated HIP1 (22-309) (UniProt O00291)
# Assay: SPR; Biacore T200, 25°C; biotinylated HIP1(22-309) immobilised on Sensor Chip NA (900 RU); Ub chains as analytes 60 nM to 250 uM, multicycle; 50 mM Hepes pH 7.5, 300 mM NaCl, 0.5 mM TCEP, 0.05% Tween-20, 1% BSA; steady-state affinity model
# Sequence of UniProt O00291 (O00291 22-309): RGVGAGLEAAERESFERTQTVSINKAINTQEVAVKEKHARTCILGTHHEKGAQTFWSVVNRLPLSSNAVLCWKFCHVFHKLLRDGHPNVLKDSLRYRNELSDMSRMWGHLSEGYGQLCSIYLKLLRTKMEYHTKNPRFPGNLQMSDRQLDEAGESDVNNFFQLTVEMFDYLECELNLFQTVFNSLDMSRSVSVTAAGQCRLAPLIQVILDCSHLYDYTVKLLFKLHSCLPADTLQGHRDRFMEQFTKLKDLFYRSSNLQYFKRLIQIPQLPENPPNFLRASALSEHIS
row,Kd,Substance
1,1.55 µM,K63-linked Ub3 (from UniProt P0CG48 1-76; P0CG48 1-76)
2,137 µM,K48-linked Ub2 (from UniProt P0CG48 1-76; P0CG48 1-76)
3,66.2 µM,K48-linked Ub3 (from UniProt P0CG48 1-76; P0CG48 1-76)
4,1.89 µM,K63-linked Ub2 (from UniProt P0CG48 1-76; P0CG48 1-76)
